To fix the notation:
B1: Autophagy-related protein 101 (Homo sapiens), Q9BSB4 (parent)
chain: MNCRSEVLEVSVEGRQVEEAMLAVLHTVLLHRSTGKFHYKKEGTYSIGTVGTQDVDCDFIDFTYVRVSSEELDRALRKVVGEFKDALRNSGGDGLGQMSLEFYQKKKSRWPFSDECIPWEVWTVKVHVVALATEQERQICREKVGEKLCEKIINIVEVMNRHEYLPKMPTQSEVDNVFDTGLRDVQPYLYKISFQITDALGTSVTTTMRRLIKDTLAL
partner: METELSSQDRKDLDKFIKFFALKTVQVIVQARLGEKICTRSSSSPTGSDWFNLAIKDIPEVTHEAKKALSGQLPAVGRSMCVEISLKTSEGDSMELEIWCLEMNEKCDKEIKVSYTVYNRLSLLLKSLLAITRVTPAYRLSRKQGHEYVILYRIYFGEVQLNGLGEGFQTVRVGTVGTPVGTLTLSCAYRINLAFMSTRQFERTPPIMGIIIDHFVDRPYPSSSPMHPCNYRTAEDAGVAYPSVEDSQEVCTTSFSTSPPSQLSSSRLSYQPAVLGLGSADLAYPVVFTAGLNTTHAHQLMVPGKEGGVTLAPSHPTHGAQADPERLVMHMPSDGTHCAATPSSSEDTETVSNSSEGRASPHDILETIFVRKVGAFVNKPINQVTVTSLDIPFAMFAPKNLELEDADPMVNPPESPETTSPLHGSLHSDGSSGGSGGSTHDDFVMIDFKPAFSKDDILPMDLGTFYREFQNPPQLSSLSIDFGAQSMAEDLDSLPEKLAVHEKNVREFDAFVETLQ

In this assay the parent is B1. Conditions: with atg13_mouse Atg13, Q91YI1.
As to L30R;H31R, the “effect of a mutation on the interaction” value is “disrupting interaction strength”. The result for T63R reads “decreasing interaction strength”.

These data come from IntAct's records for PubMed 26030876.
